Laboratory results taken from PMC6954185 (Nature Communications, 2020).
Values belong to the molecule of their own block, whether it stands above or below them.

What was measured:
[1] = target: PTP-σ_D1D2 (human), Trx-His6-tagged (human); experiment: ITC; VP-ITC at 25 °C; 50 mM Tris-HCl pH 7.5, 100 mM NaCl, 1 mM EDTA, 1 mM DTT; liprin-α fragments at 200 μM injected into LAR-RPTP fragments at 20 μM; one-site binding model; N-terminal tags kept
[2] = target: PTP-δ_D1D2 (human), Trx-His6-tagged (human); experiment: as above
[3] = target: the molecule itself; experiment: cell-based or functional assay
[4] = target: T1, liprin-α2_SAM123 (C-terminal SAM repeats of human liprin-α2), Trx-His6-tagged (human, UniProt O75334 866-1193); experiment: ITC; VP-ITC at 25 °C; 50 mM Tris-HCl pH 7.5, 100 mM NaCl, 1 mM EDTA, 1 mM DTT; liprin-α fragments at 200 μM injected into LAR-RPTP fragments at 20 μM; one-site binding model; N-terminal tags kept; settings: both partners purified
T1 construct: liprin-α2, human, the C-terminal three SAM domains (SAM123); source: E. coli Rosetta BL21(DE3), purified (Ni-NTA, Superdex-200); not shown: Trx, N-terminal, kept; His6, N-terminal, kept
T1 sequence (O75334 866-1193): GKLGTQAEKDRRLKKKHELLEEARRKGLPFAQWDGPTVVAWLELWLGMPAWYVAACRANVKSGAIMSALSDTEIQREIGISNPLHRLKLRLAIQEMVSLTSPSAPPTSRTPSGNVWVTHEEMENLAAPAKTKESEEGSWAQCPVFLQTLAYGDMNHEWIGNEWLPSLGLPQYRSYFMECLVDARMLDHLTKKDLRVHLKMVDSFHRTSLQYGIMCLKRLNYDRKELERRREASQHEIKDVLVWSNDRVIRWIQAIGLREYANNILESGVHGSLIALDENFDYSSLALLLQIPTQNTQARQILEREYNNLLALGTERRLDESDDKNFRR

Sequence of PTP-δ_D1D2 (human), Trx-His6-tagged (human) (P23468 1357-1912, stated change not applied): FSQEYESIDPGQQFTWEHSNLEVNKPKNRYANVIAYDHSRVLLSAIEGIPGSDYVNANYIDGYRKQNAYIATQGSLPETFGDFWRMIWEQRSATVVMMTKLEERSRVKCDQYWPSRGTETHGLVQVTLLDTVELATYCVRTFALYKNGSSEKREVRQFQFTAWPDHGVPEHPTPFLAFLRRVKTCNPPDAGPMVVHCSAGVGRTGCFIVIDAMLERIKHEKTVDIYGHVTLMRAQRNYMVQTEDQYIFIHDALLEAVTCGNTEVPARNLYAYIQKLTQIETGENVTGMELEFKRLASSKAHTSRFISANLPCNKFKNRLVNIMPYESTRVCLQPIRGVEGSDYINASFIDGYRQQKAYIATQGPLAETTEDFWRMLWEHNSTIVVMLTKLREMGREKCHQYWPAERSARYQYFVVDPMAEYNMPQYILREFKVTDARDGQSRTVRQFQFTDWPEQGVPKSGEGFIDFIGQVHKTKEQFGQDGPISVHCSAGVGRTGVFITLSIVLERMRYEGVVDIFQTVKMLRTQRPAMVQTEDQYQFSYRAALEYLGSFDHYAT
Sequence of PTP-σ_D1D2 (human), Trx-His6-tagged (human) (Q13332 1393-1948): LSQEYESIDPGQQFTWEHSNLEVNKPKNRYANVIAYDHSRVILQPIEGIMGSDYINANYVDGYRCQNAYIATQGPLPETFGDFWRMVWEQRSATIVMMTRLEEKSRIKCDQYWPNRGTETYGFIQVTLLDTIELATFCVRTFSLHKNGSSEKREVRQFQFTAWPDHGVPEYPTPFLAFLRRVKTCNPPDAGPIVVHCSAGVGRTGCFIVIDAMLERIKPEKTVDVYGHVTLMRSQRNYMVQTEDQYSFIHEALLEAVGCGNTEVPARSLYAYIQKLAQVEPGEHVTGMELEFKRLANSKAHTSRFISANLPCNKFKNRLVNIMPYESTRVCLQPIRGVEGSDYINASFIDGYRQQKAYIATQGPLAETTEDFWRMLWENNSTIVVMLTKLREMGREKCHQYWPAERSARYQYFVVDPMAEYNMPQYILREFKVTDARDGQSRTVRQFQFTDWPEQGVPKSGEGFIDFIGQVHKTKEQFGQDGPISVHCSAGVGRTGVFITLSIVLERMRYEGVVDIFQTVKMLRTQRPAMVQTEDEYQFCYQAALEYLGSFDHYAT

- Kd [1]: 2.4 µM
- Kd [2]: 6.4 µM
Molecule: α2_SAM123ΔInsertion (liprin-α2_SAM123 with the insertion loop connecting SAM1 and SAM2 deleted) (from UniProt O75334 866-1193) (domain or fragment)

B1: LAR_D1D2 L1539C/T1593C double-cysteine mutant (domain or fragment, human)
chain: IPITDLADNIERLKANDGLKFSQEYESIDPGQQFTWENSNLEVNKPKNRYANVIAYDHSRVILTSIDGVPGSDYINANYIDGYRKQNAYIATQGPLPETMGDFWRMVWEQRTATVVMMTRLEEKSRVKCDQYWPARGTETCGLIQVTLLDTVELATYTVRTFALHKSGSSEKRELRQFQFMAWPDHGVPEYPTPILAFLRRVKACNPCDAGPMVVHCSAGVGRTGCFIVIDAMLERMKHEKTVDIYGHVTCMRSQRNYMVQCEDQYVFIHEALLEAATCGHTEVPARNLYAHIQKLGQVPPGESVTAMELEFKLLASSKAHTSRFISANLPCNKFKNRLVNIMPYELTRVCLQPIRGVEGSDYINASFLDGYRQQKAYIATQGPLAESTEDFWRMLWEHNSTIIVMLTKLREMGREKCHQYWPAERSARYQYFVVDPMAEYNMPQYILREFKVTDARDGQSRTIRQFQFTDWPEQGVPKTGEGFIDFIGQVHKTKEQFGQDGPITVHCSAGVGRTGVFITLSIVLERMRYEGVVDMFQTVKTLRTQRPAMVQTEDQYQLCYRAALEYLGSFDHYAT
modifications: intermolecular disulfide bridges between the introduced cysteines (without reducing reagents)
- in vitro phosphatase activity of the LAR_D1D2 dimer relative to the monomer fraction, with 2 mM DTT in the reaction buffer [3]: ~80%
- in vitro phosphatase activity of the disulfide-linked LAR_D1D2 dimer relative to the monomeric mutant, reaction buffer without DTT [3]: ~40%

- Kd [4]: 14 ± 1 µM
B2: LAR_D2 (D2 domain of human LAR), His6-SUMO-tagged (domain or fragment, UniProt P10586 1620-1907, looked up)
chain: LYAHIQKLGQVPPGESVTAMELEFKLLASSKAHTSRFISANLPCNKFKNRLVNIMPYELTRVCLQPIRGVEGSDYINASFLDGYRQQKAYIATQGPLAESTEDFWRMLWEHNSTIIVMLTKLREMGREKCHQYWPAERSARYQYFVVDPMAEYNMPQYILREFKVTDARDGQSRTIRQFQFTDWPEQGVPKTGEGFIDFIGQVHKTKEQFGQDGPITVHCSAGVGRTGVFITLSIVLERMRYEGVVDMFQTVKTLRTQRPAMVQTEDQYQLCYRAALEYLGSFDHYAT
notes: also called D2 domain alone; source: E. coli Rosetta BL21(DE3), purified (Ni-NTA, Superdex-200); not shown: His6, N-terminal, kept; SUMO, N-terminal, kept
